Here are results for 4 molecules from patent US8822661B2, “Xylose reductase mutants and uses thereof” (The Board of Trustees of the University of Illinois, priority 2007, dated 2014).

For data set [1] the following is noted: cited from earlier work.
Data set [2] is described as follows: Kinetic characterization of purified mutant NcXRs, substrate D-xylose (NADPH oxidation at A340). It counts as biochemical, Neurospora crassa. Here is the method:
(§1) NADPH concentration was kept >100 μM at all times, making it the non-rate-limiting reagent assuming no significant change in KM for mutants from the 1.8 μM for wild-type NcXR toward NADPH. All reactions were performed at pH 6.3 and 25° C., allowing for easy comparison to published data on wild-type NcXR. Initial reaction rate at each substrate concentration was measured by monitoring the rate of change at A340 upon addition of purified enzyme to the substrate mix. All readings were taken in at least two independent two data sets to minimize random error and eliminate experimental artifacts. […] Maximum reaction rates (kcat) were calculated based on molecular weight of dimeric NcXR.
(§2) Michaelis-Meten kinetic constants (KM, kcat) were determined. All reactions were performed at 25° C. in 50 mM MOPS buffer pH 6.3. NADPH concentration was kept >100 μM, usually between 100-400 μM and substrate concentrations were between 5 and 1500 mM for xylose and between 5 and 2000 mM for arabinose. Purified enzymes were kept on ice at all times to minimize thermal inactivation. Calculations were based on at least two independent datasets of two readings each, and were performed by least-squares fit method in Microcal Origin 5.0 (OriginLab Corporation, Northampton, Mass.). Substrate solutions were maintained at 25° C. in ThermoNESLAB RTE7 refrigerated water bath (Thermo Electron Corporation, Waltham, Mass.). A water-circulating jacketed the cuvette holder in Varian Cary 100 Bio UV-visible spectrophotometer (Varian, Palo Alto, Calif.). 500 μL substrate solution was added to a quartz cuvette with 10 mm path-length and mixed with 0.3-2 μg purified enzyme. Reaction rate was monitored as decrease in absorbance at 340 nm, corresponding to oxidation of NADPH (c=6220 M^−1 cm^−1) to NADP. Initial reaction rate was measured as the slope between 0.05 min and 0.25 min. Specific activity calculated for various substrate concentrations from initial reaction rates was used to calculate Michaelis-Menten constants.

Data set [3] can be described thus: Kinetic characterization of purified mutant NcXRs, substrate L-arabinose (NADPH oxidation at A340). The class given is biochemical, Neurospora crassa. Here is the method: as §1, §2
For data set [4] the following is noted: XR of the named organism, cited from earlier work.
Setting [5] is: XR of the named organism, read-out: KM, NADPH.

Like-named read-outs stand apart in the source and are kept apart here.

B1: C. tenuis: xylose reductase (XR) from C. tenuis (protein, UniProt O74237 1-322, looked up)
NAD(P)H-dependent D-xylose …: MSASIPDIKLSSGHLMPSIGFGCWKLANATAGEQVYQAIKAGYRLFDGAEDYGNEKEVGDGVKRAIDEGLVKREEIFLTSKLWNNYHDPKNVETALNKTLADLKVDYVDLFLIHFPIAFKFVPIEEKYPPGFYCGDGNNFVYEDVPILETWKALEKLVAAGKIKSIGVSNFPGALLLDLLRGATIKPAVLQVEHHPYLQQPKLIEFAQKAGVTITAYSSFGPQSFVEMNQGRALNTPTLFAHDTIKAIAAKYNKTPAEVLLRWAAQRGIAVIPKSNLPERLVQNRSFNTFDLTKEDFEEIAKLDIGLRFNDPWDWDNIPIFV
Consider B1, for which the Km in data set [1] (setting [5]) is 4.8 µM.

B2: wt: wild-type xylose reductase from Neurospora crassa, SEQ ID NO: 1 (NCU 08384.1) (protein, listed as Neurospora crassa)
chain: MVPAIKLNSGFDMPQVGFGLWKVDGSIASDVVYNAIKAGYRLFDGACDYGNEVECGQGVARAIKEGIVKREELFIVSKLWNTFHDGDRVEPIVRKQLADWGLEYFDLYLIHFPVALEYVDPSVRYPPGWHFDGKSEIRPSKATIQETWTAMESLVEKGLSKSIGVSNFQAQLLYDLLRYAKVRPATLQIEHHPYLVQQNLLNLAKAEGIAVTAYSSFGPASFREFNMEHAQKLQPLLEDPTIKAIGDKYNKDPAQVLLRWATQRGLAIIPKSSREATMKSNLNSLDFDLSEEDIKTISGFDRGIRFNQPTNYFSAENLWIFG
B2: the “xylose over arabinose specificity, in words” value in data set [2] is reported as “higher than twofold”. In addition, the “Selectivity (xylose-to-arabinose)” value in data set [2] (ratio of catalytic efficiency between xylose and arabinose) was 2.4. In addition, the “Catalytic Efficiency (relative)” value in data set [2] (substrate D-Xylose, relative to wt with D-xylose) is 100%; in data set [3] (relative to wt with D-xylose), 41%. Also, the Michaelis-Menten constant (Km) in data set [3] (pH 6.3, 25° C., NADPH >100 μM) is 40000 µM; in data set [4] (read-out: KM, xylose), 34000 µM; in data set [1] (setting [5]), 1.8 µM; in data set [1] (wild-type NcXR, published value, read-out: KM toward NADPH), 1.8 µM. The kcat was 30 s⁻¹ in data set [3] (pH 6.3, 25° C., based on dimeric NcXR) and 60 s⁻¹ in data set [4].

B3: S. cerevisiae: xylose reductase (XR) from S. cerevisiae (protein, UniProt P38715 2-327, looked up)
NADPH-dependent aldose …: SSLVTLNNGLKMPLVGLGCWKIDKKVCANQIYEAIKLGYRLFDGACDYGNEKEVGEGIRKAISEGLVSRKDIFVVSKLWNNFHHPDHVKLALKKTLSDMGLDYLDLYYIHFPIAFKYVPFEEKYPPGFYTGADDEKKGHITEAHVPIIDTYRALEECVDEGLIKSIGVSNFQGSLIQDLLRGCRIKPVALQIEHHPYLTQEHLVEFCKLHDIQVVAYSSFGPQSFIEMDLQLAKTTPTLFENDVIKKVSQNHPGSTTSQVLLRWATQRGIAVIPKSSKKERLLGNLEIEKKFTLTEQELKDISALNANIRFNDPWTWLDGKFPTFA
As to B3, in data set [1] (setting [5]), the Km was 7.6 µM.

B4: P. siptitus: xylose reductase (XR) from P. siptitus as printed (protein, UniProt P31867 1-318, looked up)
NAD(P)H-dependent D-xylose …: MPSIKLNSGYDMPAVGFGCWKVDVDTCSEQIYRAIKTGYRLFDGAEDYANEKLVGAGVKKAIDEGIVKREDLFLTSKLWNNYHHPDNVEKALNRTLSDLQVDYVDLFLIHFPVTFKFVPLEEKYPPGFYCGKGDNFDYEDVPILETWKALEKLVKAGKIRSIGVSNFPGALLLDLLRGATIKPSVLQVEHHPYLQQPRLIEFAQSRGIAVTAYSSFGPQSFVELNQGRALNTSPLFENETIKAIAAKHGKSPAQVLLRWSSQRGIAIIPKSNTVPRLLENKDVNSFDLDEQDFADIAKLDINLRFNDPWDWDKIPIFV
Consider B4, for which, in data set [1] (setting [5]), the Michaelis-Menten constant (Km) is 9 µM.
